Measured values as given in patent US20230399394A1 (SUNSHINE GUOJIAN PHARMACEUTICAL SHANGHAI, published 2023).
Residue numbers refer to the chain shown, from its start.

Assays:
[1] = target: T1, IL-33 mutant protein E62A (human, UniProt O95760 112-270); test: ELISA as Example 9; row E62A
T1 construct: Prokaryotic expression
T1 chain: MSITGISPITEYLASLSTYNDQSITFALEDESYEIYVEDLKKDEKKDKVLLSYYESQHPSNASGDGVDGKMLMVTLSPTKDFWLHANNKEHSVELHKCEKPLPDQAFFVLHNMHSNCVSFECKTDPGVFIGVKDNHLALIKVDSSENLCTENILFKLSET
Method: (§1) SA protein was diluted to 2 μg/mL to coat ELISA plate at 100 μL/well overnight at 4° C. The plate was washed with PBST (PBS containing 0.05% Tween20) for 3 times, and blocked with 2% BSA prepared in PBS at 200 μL/well, at room temperature for 2 h. After the plate was washed twice with PBST, IL-33-his-biotin protein was diluted to 1 μg/mL with 1% BSA prepared in PBST, and was added to ELISA plate at 100 μL/well. The plate was incubated at room temperature for 1 h, and each monoclonal antibody was diluted with 1% BSA prepared in PBST in a 3-fold gradient. The highest concentration of antibody was 10 μg/mL, and the antibody was diluted for 12 gradients. Each diluted monoclonal antibody was added to ELISA wells with 100 μL/well, and the plate was incubated at room temperature for 1 h. Each sample was added to duplicate wells in parallel. The plate was washed with PBST for 3 times, and HRP-anti human IgG Fc secondary antibody prepared with PBST was diluted at an appropriate ratio, and was added to ELISA wells at 100 μL/well. […] Each reaction solution was shaken uniformly and OD450 nm was read on a microplate reader. The data was analyzed and EC₅₀ was calculated.
(§2) Subsequently, according to the experimental method of Example 9, the affinity of the above mutant proteins to 874F7-Hu1 was determined, and IL-33 proteins (WT-1, WT-2, WT-3, and WT-4) without any mutation were set as controls.

[2] = target: T2, IL-33 mutant protein H58A (human, UniProt O95760 112-270); test: ELISA as Example 9; row H58A
T2 construct: Prokaryotic expression
T2 chain: T1 chain with H58A, A62E
Method: as §1, §2

[3] = target: T3, IL-33 mutant protein K70A (human, UniProt O95760 112-270); test: ELISA as Example 9; row K70A
T3 construct: Prokaryotic expression
T3 chain: T1 chain with A62E, K70A
Method: as §1, §2

[4] = target: T4, IL-33 mutant protein L50A (human, UniProt O95760 112-270); test: ELISA as Example 9; row L50A
T4 construct: Prokaryotic expression
T4 chain: T1 chain with L50A, A62E
Method: as §1, §2

[5] = target: T5, IL-33 mutant protein S52A (human, UniProt O95760 112-270); test: ELISA as Example 9; row S52A
T5 construct: Prokaryotic expression
T5 chain: T1 chain with S52A, A62E
Method: as §1, §2

[6] = target: T6, IL-33 protein without any mutation (WT) (human, UniProt O95760 112-270); test: ELISA as Example 9; row WT-2
T6 construct: Control of the alanine scan (four runs WT-1 to WT-4); also called WT-1; WT-2
T6 sequence: T1 chain with A62E
Method: as §1, §2

[7] = target: T6, IL-33 protein without any mutation (WT); test: ELISA as Example 9; row WT-3
Method: as §1, §2

[8] = target: T7, IL-33 mutant protein N61A (human, UniProt O95760 112-270); test: ELISA as Example 9; row N61A against WT-3
T7 chain: T1 chain with N61A, A62E
Method: as §1, §2

[9] = target: T5, IL-33 mutant protein S52A; test: ELISA as Example 9; row S52A against WT-2
Method: as §1, §2

[10] = target: T8, IL-33 mutant protein S60A (human, UniProt O95760 112-270); test: ELISA as Example 9; row S60A against WT-1
T8 construct: Prokaryotic expression; also called 560A
T8 chain: T1 chain with S60A, A62E
Method: as §1, §2

[11] = target: T6, IL-33 protein without any mutation (WT); test: ELISA as Example 9; row WT-2, the reference itself
Method: as §1, §2

B1: 874F7-Hu1 (antibody, human IgG4 S228P, kappa)
heavy: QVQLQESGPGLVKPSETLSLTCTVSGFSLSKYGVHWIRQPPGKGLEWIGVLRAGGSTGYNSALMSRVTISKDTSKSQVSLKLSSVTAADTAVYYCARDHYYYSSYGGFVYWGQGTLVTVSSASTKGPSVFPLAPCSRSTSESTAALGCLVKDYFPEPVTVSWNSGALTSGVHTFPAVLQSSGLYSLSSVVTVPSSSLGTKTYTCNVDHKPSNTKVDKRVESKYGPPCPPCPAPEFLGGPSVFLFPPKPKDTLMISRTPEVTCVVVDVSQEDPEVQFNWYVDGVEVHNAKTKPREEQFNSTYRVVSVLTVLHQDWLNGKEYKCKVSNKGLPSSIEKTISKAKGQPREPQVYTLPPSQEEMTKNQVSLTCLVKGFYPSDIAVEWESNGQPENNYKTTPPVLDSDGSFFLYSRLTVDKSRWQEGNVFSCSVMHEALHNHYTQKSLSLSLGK
light: DIQMTQSPSSVSASVGDRVTITCLASQTIGAWLAWYQQKPGKSPKLLIYAATRLADGVPSRFSGSGSGTDFTLTISSLQPEDFATYYCQQLDSSPYTFGQGTKVEIKRTVAAPSVFIFPPSDEQLKSGTASVVCLLNNFYPREAKVQWKVDNALQSGNSQESVTEQDSKDSTYSLSSTLTLSKADYEKHKVYACEVTHQGLSSPVTKSFNRGEC
notes: also called 874F7-Hul; humanized antibody 874F7-Hu1
[1]
  EC50: 0.15 nM
[2]
  EC50: 0.43 nM
[3]
  EC50: 0.11 nM
[4]
  EC50: 3.34 nM
[5]
  EC50: 1.96 nM
[6]
  EC50: 0.13 nM
[7]
  EC50: 0.18 nM
[8]
  Affinity decline ratio: 0.8 fold
[9]
  Affinity decline ratio: 14.6 fold
[10]
  Affinity decline ratio: 23.2 fold
[11]
  Affinity decline ratio: 1 fold
